From EP4713368A1 (dated 2026)
Residue numbers refer to the chain shown, from its start.

B1: Ab No. 27 (antibody, V domains shown)
VH: EVQLLESGGGLVQPGGSLRLSCAASGFTFSNYAMSWVRQAPGKGLEWVSAISGSGGSTYYADSVKGRFTISRDNSKNTLYLQMDSLRAEDTAVYYCASFGDIAVAGAGFVNWGQGTLVTVSS
VL: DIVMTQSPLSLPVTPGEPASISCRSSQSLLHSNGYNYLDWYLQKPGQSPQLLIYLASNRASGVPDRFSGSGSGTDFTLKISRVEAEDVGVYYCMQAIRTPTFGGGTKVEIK
notes: IgG format
B2: Ab No. 3 (antibody, V domains shown)
VH: QVQLVQSGAEVKKPGSSVKVSCKASGGTFSSYAISWVRQAPGQGLEWMGGIIPISGTANYAQKFQGRVTITADESTSTAYMELSSLRSEDTAVYYCAKALAPGIPQWGQGTLVTVSS
VL: DIQMTQSPSSLSASVGDRVTITCRASQSISSYLNWYQQKPGKAPKLLIYAASSLQSGVPSRFSGSGSGTDFTLTISSLQPEDFATYYCQQAYDDPTFGGGTKVEIK
notes: IgG format
B3: Ab No. 4 (antibody, V domains shown)
VH: B2 VH
VL: DIQMTQSPSSLSASVGDRVTITCRASQSISRYLNWYQQKPGKAPKLLIYGASSLQSGVPSRFSGSGSGTDFTLTISSLQPEDFATYYCQQAFSSPITFGGGTKVEIK
notes: IgG format
B4: Ab No. 28 (antibody, V domains shown)
VH: EVQLLESGGGLVQPGGSLRLSCAASGFTFSSYAMSWVRQAPGKGLEWVSAISGSGGSTYYADSVKGRFTISRDNSKNTLYLQMNSLRAEDTAVYYCVRGYRLVGILTGSHFDYWGQGTLVTVSS
VL: DIQMTQSPSTLSASVGDRVTITCRASQSIGSWLAWYQQKPGKAPKLLIYKASSLESGVPSRFSGSGSGTEFTLTISSLQPDDFATYYCQQYNILPPTFGGGTKVEIK
notes: IgG format
B5: Ab No. 14 (antibody, V domains shown)
VH: QVQLVQSGAEVKKPGSSVKVSCKASGGTFSSYAISWVRQAPGQGLEWMGGIIPISGTANYAQKFQGRVTITADESTSTAYMELSSLRSEDTAVYYCARGSLSLAAETPLWGRGTLVTVSS
VL: EIVLTQSPATLSLSPGERATLSCRASQSVSSYLAWYQQKPGQAPRLLIYDASKRATGIPARFSGSGSGTDFTLTISSLEPEDFAVYYCQQYLNFPITFGGGTKVEIK
notes: IgG format
B6: Ab No. 17 (antibody, V domains shown)
VH: QVQLVQSGAEVKKPGSSVKVSCKASGGTFSSYAISWVRQAPGQGLEWMGGVIPISGTANYAQKFQGRVTITADESTSTAYMELSSLRSEDTAVYYCARLYHLALAPAWGQGTLVTVSS
VL: B5 VL with L4M, K53N, Y91A, L92V, F94L
notes: IgG format
B7: Ab No. 2 (antibody, V domains shown)
VH: QVQLVQSGAEVKKPGASVKVSCKASGYTFTSYAMHWVRQAPGQRLEWMGWINAGTGATKYSQKFQGRVTITRDTSASTAYMELSSLRSEDTAVYYCARDLVHSYGLLPGWGQGTLVTVSS
VL: B5 VL with K53N, L92S, F94W, I96F
notes: IgG format
B8: Ab No. 21 (antibody, V domains shown)
VH: QVQLVQSGAEVKKPGSSVKVSCKASGGTFSSYAISWVRQAPGQGLEWMGGIIPISGTANYAQKFQGRVTITADESTSTAYMELSSLRSEDTAVYYCTRDLGFGAIRDTWGQGTLVTVSS
VL: B5 VL with Y36F, K53N, Y91S, F94L
notes: IgG format
B9: Ab No. 20 (antibody, V domains shown)
VH: B8 VH
VL: B5 VL with K53N, Y91S, L92N, F94L
notes: IgG format
B10: Ab No. 46 (antibody, V domains shown)
VH: QVQLVQSGAEVKKPGSSVKVSCKASGGTFSSYAISWVRQAPGQGLEWMGGIIPISGTTNYAQKFQGRVTITADESTSTAYMELSSLRSEDTAVYYCARHSSSWGTAITSDYWGQGTLVTVSS
VL: QSVLTQPPSVSGAPGQRVTISCTGSGSNIGAGYDVHWYQQLPGTAPKLLIYGNTNRPSGVPDRFSGSKSGTSASLAITGLQAEDEADYYCQSNDNSLRGILFGGGTKLTVL
notes: IgG format
B11: Ab No. 10 (antibody, V domains shown)
VH: QVQLVQSGAEVKKPGSSVKVSCKASGGTFSSYAISWVRQAPGQGLEWMGGIIPISGTANYAQKFQGRVTITADESTSTAYMELSSLRSEDTAVYYCARDKGGLGRGGRYWGQGTLVTVSS
VL: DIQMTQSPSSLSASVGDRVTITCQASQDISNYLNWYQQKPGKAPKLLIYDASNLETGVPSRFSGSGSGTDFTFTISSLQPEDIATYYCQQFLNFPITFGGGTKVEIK
notes: IgG format
B12: Ab No. 19 (antibody, V domains shown)
VH: B11 VH with D99Q, K100Y, G102T, L103F, G104A, R105F, G106Y, G107S, R108D
VL: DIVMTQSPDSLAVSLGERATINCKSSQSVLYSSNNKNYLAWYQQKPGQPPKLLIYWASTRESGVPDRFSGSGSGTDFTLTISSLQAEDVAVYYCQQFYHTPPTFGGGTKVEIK
notes: IgG format
B13: Ab No. 22 (antibody, V domains shown)
VH: B11 VH with A97V, D99A, K100R, G102I, L103V, R105P, G106D, G107E, R108G, Y109P
VL: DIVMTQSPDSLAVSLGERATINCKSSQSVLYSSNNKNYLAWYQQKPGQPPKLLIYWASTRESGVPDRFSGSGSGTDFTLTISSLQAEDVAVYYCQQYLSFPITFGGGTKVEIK
notes: IgG format
B14: Ab No. 18 (antibody, V domains shown)
VH: B11 VH with D99P, K100E, G101K, L103F, G104T, R105S, G107L, R108V, Y109D
VL: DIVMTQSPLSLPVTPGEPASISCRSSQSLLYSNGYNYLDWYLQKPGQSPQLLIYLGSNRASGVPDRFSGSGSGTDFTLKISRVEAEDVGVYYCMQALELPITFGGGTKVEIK
notes: IgG format
B15: Ab No. 16 (antibody, V domains shown)
VH: B11 VH with D99L, K100Y, G101H, G102I, L103G, G104T, R105T, G107Y, R108P
VL: B2 VL with A50G, A91S, D93Y
notes: IgG format
B16: Ab No. 23 (antibody, V domains shown)
VH: B11 VH with A97V, D99A, K100R, G102I, L103V, R105P, G106D, G107E, R108G, Y109P
VL: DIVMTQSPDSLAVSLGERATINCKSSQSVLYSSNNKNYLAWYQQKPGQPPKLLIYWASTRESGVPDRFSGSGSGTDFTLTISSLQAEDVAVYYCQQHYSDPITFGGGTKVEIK
notes: IgG format
B17: Ab No. 25 (antibody, V domains shown)
VH: EVQLVESGGGLVQPGRSLRLSCAASGFTFDDYAMHWVRQAPGKGLEWVSGISWSSGSIGYADSVKGRFTISRDNAKNSLYLQMNSLRAEDTAVYYCAKAWGRVGRANYYYYGLDVWGQGTTVTVSS
VL: EIVLTQSPATLSLSPGERATLSCRASQSVSSYLAWYQQKPGQAPRLLIYDASNRATGIPARFSGSGSGTDFTLTISSLEPEDFAVYYCQQYSNFPPITFGGGTKVEIK
notes: IgG format
B18: Ab No. 26 (antibody, V domains shown)
VH: B17 VH with K65E
VL: EIVLTQSPATLSLSPGERATLSCRASQSVSSYLAWYQQKPGQAPRLLIYDASNRATGIPARFSGSGSGTDFTLTISSLEPEDFAVYYCQQYANHLTFGGGTKVEIK
notes: IgG format
B19: Ab No. 12 (antibody, V domains shown)
VH: QVQLVQSGAEVKKPGSSVKVSCKASGGTFSSYAISWVRQAPGQGLEWMGGIIPISGTANYAQKFQGRVTITADESTSTAYMELSSLRSEDTAVYYCARGGIALHRSSSGLLWGRGTLVTVSS
VL: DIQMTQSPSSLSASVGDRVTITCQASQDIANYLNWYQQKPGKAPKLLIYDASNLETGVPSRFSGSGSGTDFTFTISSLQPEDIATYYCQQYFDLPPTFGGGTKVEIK
notes: IgG format
B20: Ab No. 1 (antibody, V domains shown)
VH: QVQLVQSGAEVKKPGASVKVSCKASGYTFTSYAMHWVRQAPGQRLEWMGWINAGTGATKYSQKFQGRVTITRDTSASTAYMELSSLRSEDTAVYYCAKDIGSGFYELSLDYWGQGTLVTVSS
VL: DIQMTQSPSSVSASVGDRVTITCRASQGISSWLAWYQQKPGKAPKLLIYAASNLQSGVPSRFSGSGSGTDFTLTISSLQPEDFATYYCQQIISLPLTFGGGTKVEIK
notes: IgG format
B21: Ab No. 11 (antibody, V domains shown)
VH: B8 VH with T97A, L100R, F102L, A104F, I105P, R106H, D107L, T108V
VL: B20 VL with N53S, I91G, I92N, L96I
notes: IgG format
B22: Ab No. 6 (antibody, V domains shown)
VH: B6 VH with V51I, R98K, L99G, Y100G, H101F, L102G, L104P, A105L, A107T
VL: B20 VL with N53S, I91G, L94H, L96F
notes: IgG format
B23: Ab No. 7 (antibody, V domains shown)
VH: B6 VH with V51I, R98K, L99G, Y100G, H101F, L102G, L104P, A105L, A107T
VL: B3 VL with R31S, G50S, A91G, F92S, S94V, I96F
notes: IgG format
B24: Ab No. 5 (antibody, V domains shown)
VH: B6 VH with V51I, R98K, L99G, Y100G, H101F, L102G, L104P, A105L, A107T
VL: B20 VL with M4L, G28D, N53S, I91G, I92N, S93A, L94H, L96F
notes: IgG format
B25: Ab No. 24 (antibody, V domains shown)
VH: QITLKESGPTLVKPTQTLTLTCTFSGFSLSTSGVGVGWIRQPPGKALEWLALIYWNDDKRYSPSLKSRLTITKDTSKNQVVLTMTNMDPVDTAVYYCARSFDQGIAVWGPFDYWGQGTLVTVSS
VL: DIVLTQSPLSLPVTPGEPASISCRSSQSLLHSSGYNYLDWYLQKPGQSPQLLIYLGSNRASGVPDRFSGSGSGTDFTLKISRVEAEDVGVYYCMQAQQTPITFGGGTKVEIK
notes: IgG format
B26: Ab No. 13 (antibody, V domains shown)
VH: QVQLVQSGAEVKKPGSSVKVSCKASGGTFSSYAISWVRQAPGQGLEWMGGIIPISGTANYAQKFQGRVTITADESTSTAYMELSSLRSEDTAVYYCARGGIALSAGPSNIWGQGTLVTVSS
VL: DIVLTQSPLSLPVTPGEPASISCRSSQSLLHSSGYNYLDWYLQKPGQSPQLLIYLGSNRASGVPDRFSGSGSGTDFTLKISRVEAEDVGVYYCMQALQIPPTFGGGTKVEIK
notes: IgG format
B27: Ab No. 15 (antibody, V domains shown)
VH: B26 VH with G100S, I101L, A102S, S104V, A105S, G106Y, P107G, S108P, N109A, I110V
VL: EIVMTQSPATLSVSPGERATLSCRASQSVSSNLAWYQQKPGQAPRLLIYGASTRATGIPARFSGSGSGTEFTLTISSLQSEDFAVYYCQQYITHPPTFGGGTKVEIK
notes: IgG format

Each binder was assayed against T1, human CD28 (human, UniProt P10747 19-152, limits assumed) (assay: selection from yeast-presented synthetic human antibody libraries).
T1 construct: also called Cluster of Differentiation 28; Tp44

Binding result, binds:
B1
B2
B3
B4
B5
B6
B7
B8
B9
B10
B11
B12
B13
B14
B15
B16
B17
B18
B19
B20
B21
B22
B23
B24
B25
B26
B27
